Measured values as given in IntAct's records for PubMed 15604664.

B1: Floral homeotic protein … (Arabidopsis thaliana (Mouse-ear cress)), P48007 (parent)
chain: MGRGKIEIKRIENANNRVVTFSKRRNGLVKKAKEITVLCDAKVALIIFASNGKMIDYCCPSMDLGAMLDQYQKLSGKKLWDAKHENLSNEIDRIKKENDSLQLELRHLKGEDIQSLNLKNLMAVEHAIEHGLDKVRDHQMEILISKRRNEKMMAEEQRQLTFQLQQQEMAIASNARGMMMRDHDGQFGYRVQPIQPNLQEKIMSLVID

Variants of: B1
Settings: with sep3_arath SEP3, O22456
Chain of sep3_arath SEP3, O22456 (O22456 whole entry): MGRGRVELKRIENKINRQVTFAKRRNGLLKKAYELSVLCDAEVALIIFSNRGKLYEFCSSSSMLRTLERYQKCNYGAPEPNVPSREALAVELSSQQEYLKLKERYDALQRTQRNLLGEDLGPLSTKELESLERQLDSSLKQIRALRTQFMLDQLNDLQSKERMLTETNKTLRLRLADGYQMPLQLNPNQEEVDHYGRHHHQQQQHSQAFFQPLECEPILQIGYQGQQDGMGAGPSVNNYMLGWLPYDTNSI

Row | Variant | effect of a mutation on the interaction
1 | MGRGKIEIKRIENANNRVVTFSKRRNGLVKKAKEITVLCDAKVALIIFASNGKMIDYCCPSMDLGAMLDQYQKLSGKKLWDAKHENLSNEIDRIKKENDSLQLELRHLKPEDIQSLNLKNLMAVEHAIEHGLDKVRDHQMEILISKRRNEKMMAEEQRQLTFQLQQQEMAIASNARGMMMRDHDGQFGYRVQPIQPNLQEKIMSLVID [G110P] | decreasing interaction
2 | MGRGKIEIKRIENANNRVVTFSKRRNGLVKKAKEITVLCDAKVALIIFASNGKMIDYCCPSMDLGAMLDQYQKLSGKKLWDAKHENLSNEIDRIKKENDSLQLELRHLKGEDIQSLNLKNLMAVEHAIEHGLDKVRDHQMEILISKRRPEKMMAEEQRQLTFQLQQQEMAIASNARGMMMRDHDGQFGYRVQPIQPNLQEKIMSLVID [N149P] | increasing interaction
3 | MGRGKIEIKRIENANNRVVTFSKRRNGLVKKAKEITVLCDAKVALIIFASNGKMIDYCCPSMDLGAMLDQYQKLSGKKLWDAKHENLSNEIDRIKKENDSLPLELRHLKGEDIQSLNLKNLMAVEHAIEHGLDKVRDHQMEILISKRRNEKMMAEEQRQLTFQLQQQEMAIASNARGMMMRDHDGQFGYRVQPIQPNLQEKIMSLVID [Q102P] | decreasing interaction
4 | MGRGKIEIKRIENANNRVVTFSKRRNGLVKKAKEITVLCDAKVALIIFASNGKMIDYCCPSMDLGAMLDQYQKLSGKKLWDAKHENLSNEIDRIKKENDSLQLELRHLKGEDIQSLNLKNLMAVEHAIEHGLDKVRDHQMEILISKRRNEKMMAEEQRQLTFQLQQQEMAIASNARPMMMRDHDGQFGYRVQPIQPNLQEKIMSLVID [G177P] | increasing interaction
5 | MGRGKIEIKRIENANNRVVTFSKRRNGLVKKAKEITVLCDAKVALIIFASNGKMIDYCCPSMDLGAMLDQYQKLSGKKLWDAKHENLSNEIDRIKKENDSLQLELRHLKGEDIQSLNLKNLMAVEHAIEHGLDKVRDHQMEILISKRRNEKMMAEEQRQLTFQLQQPEMAIASNARGMMMRDHDGQFGYRVQPIQPNLQEKIMSLVID [Q167P] | increasing interaction
6 | MGRGKIEIKRIENANNRVVTFSKRRNGLVKKAKEITVLCDAKVALIIFASNGKMIDYCCPSMDLGAMLDQYQKLSGKKLWDAKHENLSNEIDRIKKENDSLQLELRHLKGEDIQSLNLKNLMAVEHAIEHGLDKVRDHQMEPLISKRRNEKMMAEEQRQLTFQLQQQEMAIASNARGMMMRDHDGQFGYRVQPIQPNLQEKIMSLVID [I142P] | decreasing interaction
7 | MGRGKIEIKRIENANNRVVTFSKRRNGLVKKAKEITVLCDAKVALIIFASNGKMIDYCCPSMDLGAMLDQYQKLSGKKLWDAKHENLSNEIDRIKKENDSLQLELRHLKGEDIQSLNLKNLMAVEHAIEHPLDKVRDHQMEILISKRRNEKMMAEEQRQLTFQLQQQEMAIASNARGMMMRDHDGQFGYRVQPIQPNLQEKIMSLVID [G131P] | decreasing interaction
8 | MGRGKIEIKRIENANNRVVTFSKRRNGLVKKAKEITVLCDAKVALIIFASNGKMIDYCCPSMDLGAMLDQYQKLSGKKLWDAKHENLSNEIDRIKKENDSLQLELRHLKGEDIQSLNLKNLMAVEHAIEHGPDKVRDHQMEILISKRRNEKMMAEEQRQLTFQLQQQEMAIASNARGMMMRDHDGQFGYRVQPIQPNLQEKIMSLVID [L132P] | decreasing interaction
9 | MGRGKIEIKRIENANNRVVTFSKRRNGLVKKAKEITVLCDAKVALIIFASNGKMIDYCCPSMDLGAMLDQYQKLSGKKLWDAKHENLSNEIDRIKKENDSLQPELRHLKGEDIQSLNLKNLMAVEHAIEHGLDKVRDHQMEILISKRRNEKMMAEEQRQLTFQLQQQEMAIASNARGMMMRDHDGQFGYRVQPIQPNLQEKIMSLVID [L103P] | decreasing interaction
10 | MGRGKIEIKRIENANNRVVTFSKRRNGLVKKAKEITVLCDAKVALIIFASNGKMIDYCCPSMDLGAMLDQYQKLSGKKLWDAKHENLSNEIDRIKKENDSLQLELRHLKGEDIQSLNLKNLMAVEHAIEHGLDKVRDHQMEILISKRRNEKMMPEEQRQLTFQLQQQEMAIASNARGMMMRDHDGQFGYRVQPIQPNLQEKIMSLVID [A154P] | decreasing interaction
11 | MGRGKIEIKRIENANNRVVTFSKRRNGLVKKAKEITVLCDAKVALIIFASNGKMIDYCCPSMDLGAMLDQYQKLSGKKLWDAKHENPSNEIDRIKKENDSLQLELRHLKGEDIQSLNLKNLMAVEHAIEHGLDKVRDHQMEILISKRRNEKMMAEEQRQLTFQLQQQEMAIASNARGMMMRDHDGQFGYRVQPIQPNLQEKIMSLVID [L87P] | decreasing interaction
12 | MGRGKIEIKRIENANNRVVTFSKRRNGLVKKAKEITVLCDAKVALIIFASNGKMIDYCCPSMDLGAMLDQYQKLSGKKLWDAKHENLSNEIDRIKKENDSLQLELRHLKGEDIQSLNLKNLMAVEHAIEHGLDKVRDHQMEILISKRRNEKMPAEEQRQLTFQLQQQEMAIASNARGMMMRDHDGQFGYRVQPIQPNLQEKIMSLVID [M153P] | decreasing interaction
13 | MGRGKIEIKRIENANNRVVTFSKRRNGLVKKAKEITVLCDAKVALIIFASNGKMIDYCCPSMDLGAMLDQYQKLSGKKLWDAKHENLSNEIDRIKKENDSLQLELRHLKGEDIQSPNLKNLMAVEHAIEHGLDKVRDHQMEILISKRRNEKMMAEEQRQLTFQLQQQEMAIASNARGMMMRDHDGQFGYRVQPIQPNLQEKIMSLVID [L116P] | decreasing interaction
14 | MGRGKIEIKRIENANNRVVTFSKRRNGLVKKAKEITVLCDAKVALIIFASNGKMIDYCCPSMDLGAMLDQYQKLSGKKLWDAKHENLSNEIDRIKKENDSLQLELRHLKGEDIQSLNLKNLMAVEHAIEHGLDKVRDHQMEILISKRRNEKMMAEEQRQPTFQLQQQEMAIASNARGMMMRDHDGQFGYRVQPIQPNLQEKIMSLVID [L160P] | increasing interaction
15 | MGRGKIEIKRIENANNRVVTFSKRRNGLVKKAKEITVLCDAKVALIIFASNGKMIDYCCPSMDLGAMLDQYQKLSGKKLWDAKHENLSNEIDRIKKENDSLQLELRHLKGEDIQSLNLKNLMAVEHAIEHGLDKVRDHQMEILIPKRRNEKMMAEEQRQLTFQLQQQEMAIASNARGMMMRDHDGQFGYRVQPIQPNLQEKIMSLVID [S145P] | decreasing interaction

Variants of: B1
Settings: with sep3_arath SEP3, O22456
Remark: another data set of the same source

Row | Variant | effect of a mutation on the interaction
16 | MGRGKIEIKRIENANNRVVTFSKRRNGLVKKAKEITVLCDAKVALIIFASNGKMIDYCCPSMDLGAMLDQYQKLSGKKLWDAKHENLSNEIDRIKKENDSLQLELRHLKGEDIQFLNLIILMAVEHAIEHGLDKVRDHQMEILISKRRNEKMMAEEQRQLTFQLQQQEMAIASNARGMMMRDHDGQFGYRVQPIQPNLQEKIMSLVID [S115F;K119I;N120I] | decreasing interaction
17 | MGRGKIEIKRIENANNRVVTFSKRRNGLVKKAKEITVLCDAKVALIIFASNGKMIDYCCPSMDLGAMLDQYQKLSGKKLWDAKHENLSNEIDRIKKENDSLQLELRHLKGEDIQSLNLKNLMADEHAIEHGLDKVRDHQMEILISKRRNEKMMAEEQRQLTFQLQQQEMAIASNARGMMMRDHDGQFGYRVQPIQPNLQEKIMSLVID [V124D] | decreasing interaction
18 | MGRGKIEIKRIENANNRVVTFSKRRNGLVKKAKEITVLCDAKVALIIFASNGKMIDYCCPSMDLGAMLDQYQKLSGKKLWDAKHENLSNEIDRIKKENDSLQLELRHLKGEGIQSLNLKNLMAVEHAIEHGLDKVRDHQMEILISKRRNEKMMAEEQRQLTFQLQQQEMAIASNAGGMMMRDHDGQFGYRVQPIQPNLQEKIMSLVID [D112G;R176G] | decreasing interaction
19 | MGRGKIEIKRIENANNRVVTFSKRRNGLVKKAKEITVLCDAKVALIIFASNGKMIDYCCPSMDLGAMLDQYQKLSGKKLWDAKHENLSNEIDRIKKENGSLQLELRHLKGEDIQSLNLKNLMAVEHAIEHGLDKVRDHQMEILISKRRNEKMMAEEQRQLTFQLQQQEMAIASNARGMMMRDHDGQFGYRVQPIQPNLGEKIMSLVID [D99G;Q199G] | decreasing interaction
20 | MGRGKIEIKRIENANNRVVTFSKRRNGLVKKAKEITVLCDAKVALIIFASNGKMIDYCCPSMDLGAMLDQYQKLSGKKLWDAKHENLSNEIDRIKKENDSLQLELRHLKGEDIQSLNLKNLKAVEHAIEHGLDKVRDHQMKILISKRRNEKMMAEEQRQLTFQLQQQEMAIASNARGVMMRDHDGQFGYRVQPIQPNLQEKIMSLVID [M122K;E141K;M178V] | decreasing interaction
21 | MGRGKIEIKRIENANNRVVTFSKRRNGLVKKAKEITVLCDAKVALIIFASNGKMIDYCCPSMDLGAMLDQYQKLSGKKLWDAKHENLSNEIDRIKKENDSLQLELRHLKGEDIQSLNLKNPMAVEHAIEHGLDKVRDHQMEILISKRRNEKMMAEEQRQLTFQLQQQEMAIASNARGMMMRDHDGQFGYRVQPIQPNLQEKIMSLVID [L121P] | decreasing interaction
22 | MGRGKIEIKRIENANNRVVTFSKRRNGLVKKAKEITVLCDAKVALIIFASNGKMIDYCCPSMDLGAMLDQYQKLSGKKLWDAKHENLSNEIDRIKKENDSLQLEPRHLKGEAIQSLNLKNLMAVGHAIEHGLDKVRDHQMEILISKRRNEKMMAEEQRQLTFQLQQQEMAIASNARGMMMRDHDGQFGYRVQPIQPNLQEKIMSLAID [L105P;D112A;E125G;V206A] | decreasing interaction
23 | MGRGKIEIKRIENANNRVVTFSKRRNGLVKKAKEITVLCDAKVALIIFASNGKMIDYCCPSMDLGAMLDQYQKLSGKKLWDAKHENLSNEIDRIKKENDSLQLELRHLKGEDIQSLNLKNLMAVGHAIEHGLDKVRDHQMEILISKRRNEKMMAEEQRQLTFQLQQQEMAIASNARGMMMRDHDGQFGYRVQPIQPNLQEKIMSLVID [E125G] | decreasing interaction
24 | MGRGKIEIKRIENANNRVVTFSKRRNGLVKKAKEITVLCDAKVALIIFASNGKMIDYCCPSMDLGAMLDQYQKLSGKKLWDAKHENLSNEIDRIKKENDSLQLELRHLKGEDIQSLNPKNLMAVEHAIEHGLDKVRDHQMEILISKRRDEKMMAEEQRQPTFQLQQQEMAIASNARGMMMRDHDGQFGYRVQPIQPNLQEKIMSLVID [L118P;N149D;L160P] | decreasing interaction
25 | MGRGKIEIKRIENANNRVVTFSKRRNGLVKKAKEITVLCDAKVALIIFASNGKMIDYCCPSMDLGAMLDQYQKLSGKKLWDAKHENLSSEIDRIKKENDSLQLELRHLKGEDIQSLNLKNLMAVEHAIEHGLDKVRDHQMEILISKRRNEKVMAEEQRQLTFQLQQQEMAIASNARGMMMRDHDGQFGYRVQPIQPNLQEKIMSLVID [N89S;M152V] | decreasing interaction
26 | MGRGKIEIKRIENANNRVVTFSKRRNGLVKKAKEITVLCDAKVALIIFASNGKMIDYCCPSMDLGAMLDQYQKLSGKKLWDAKHENLSNEIDRIKKENDSLQLELRHLKGEDIQSPNLKNLMAVEHAIEHGLDKVRDHQMEILISKRRNEKTMAEEQRQLTFQLQQQEMAIASNARGMMMRDHDGQFGYRVQPIQPNLQEKIMSLVID [L116P;M152T] | decreasing interaction
